As usually defined, the Kd is the concentration at which binding is half-saturated. A higher Kd goes with lower affinity.

Sequences and labels used below:
T1: LP1 peptide
T1 chain: FPSSWLQRYYLAKRR

T2: Methuselah (Mth) ectodomain, C-terminal biotinylated (Drosophila melanogaster)
T2 sequence (O97148 whole entry, looked up): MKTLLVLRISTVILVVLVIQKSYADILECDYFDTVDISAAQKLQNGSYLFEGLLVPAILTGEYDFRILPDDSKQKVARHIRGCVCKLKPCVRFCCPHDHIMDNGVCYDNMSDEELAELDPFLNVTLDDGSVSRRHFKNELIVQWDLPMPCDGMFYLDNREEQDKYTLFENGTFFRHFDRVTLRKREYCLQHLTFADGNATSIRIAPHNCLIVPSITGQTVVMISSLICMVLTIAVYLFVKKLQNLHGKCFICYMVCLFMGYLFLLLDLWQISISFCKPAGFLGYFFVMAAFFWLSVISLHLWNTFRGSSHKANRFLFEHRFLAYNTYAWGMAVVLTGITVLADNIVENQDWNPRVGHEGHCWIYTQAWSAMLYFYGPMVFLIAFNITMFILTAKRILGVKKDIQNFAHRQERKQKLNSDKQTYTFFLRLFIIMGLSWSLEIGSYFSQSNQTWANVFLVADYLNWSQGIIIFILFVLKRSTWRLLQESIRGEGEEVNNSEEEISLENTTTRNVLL

B1: Methuselah ectodomain (protein)
chain: DILECDYFDTVDISAAQKLQNGSYLFEGLLVPAILTGEYDFRILPDDSKQKVARHIRGCVCKLKPCVRFCCPHDHIMDNGVCYDNMSDEELAELDPFLNVTLDDGSVSRRHFKNELIVQWDLPMPCDGMFYLDNREEQDKYTLFENGTFFRHFDRVTLRKREYCLQHLTFADGNATSIRIAPHNCLIVPSITGQ

Bounds are passed on as bounds.

In the first test the target is T1, LP1 peptide.
Experiment: not given
Regarding B1, the Kd was determined as 18 nM.

In the next test the target is T2, Methuselah (Mth) ectodomain, C-terminal biotinylated (Drosophila melanogaster). Kind of test: SPR. (In SPR one partner is held on a chip, and binding of the other changes the refractive index at the surface.)
Turning to Ac-FPSSWLQRYYLAKRQ-NH2 [LP1 R15Q mutant peptide], the Kd came to 37.7 nM. The molecule Ac-FPSSWLQRFYLAKRR-NH2 [LP1 Y9F mutant peptide] had an equilibrium dissociation constant (Kd) of 49.5 nM.

Ac-FPSSKLQRYYLAKRR-NH2 [LP1 W5K mutant peptide] displayed an equilibrium dissociation constant (Kd) of over 15000 nM. In turn, Ac-FPSSWLQRYYQAKRR-NH2 [LP1 L11Q mutant peptide] came in with a dissociation constant (Kd) of 24.5 nM. Ac-FPSSWLQRYYLAKRR-NH2 [LP1 peptide (wild type)] registered a dissociation constant Kd of 18.5 nM. As for Ac-FPSSFLQRYYLAKRR-NH2 [LP1 W5F mutant peptide], the Kd was found to be 12000 nM.

For the origin of these results see PMC2900200 (2008).
